Assay results reported in patent publication US20190382484A1 (Chugai, published 2019).

Legend:
[1] = molecular target: T1, FcγRIIIa extracellular domain (UniProt P08637 17-208, limits assumed); test: SPR (Biacore T200), mixed half molecules captured via biotinylated antigen peptide on CAP chip, FcγR as analyte, 25 C
T1 construct: extracellular domain; Purified over HisTrap, so a His tag is implied
Method: Interaction analysis of antibody-half molecules of interest and FcγR was performed using Biacore (registered trademark) T200. Biotin CAPture Kit, Series S (GE Healthcare) was used for the measurement, and HBS-EP+10X (GE Healthcare) diluted 1/10th was used as a running buffer. The measurement temperature was 25° C. For the sensor chip, Series S Sensor Chip CAP (GE Healthcare) onto which previously-biotinylated antigen peptides were allowed to interact and thereby immobilized was used. These chips were allowed to capture the antibody-half molecules of interest and then interact with FcγR diluted with the running buffer. The antigens and antibody-half molecules captured on the chip were washed as described in the instructions attached to the kit, and the chips were regenerated and reused.

[2] = molecular target: T1, FcγRIIIa extracellular domain; test: SPR (Biacore T200), half molecule captured via biotinylated antigen peptide on CAP chip, FcγR as analyte

T1 sequence (P08637 17-208 limits assumed): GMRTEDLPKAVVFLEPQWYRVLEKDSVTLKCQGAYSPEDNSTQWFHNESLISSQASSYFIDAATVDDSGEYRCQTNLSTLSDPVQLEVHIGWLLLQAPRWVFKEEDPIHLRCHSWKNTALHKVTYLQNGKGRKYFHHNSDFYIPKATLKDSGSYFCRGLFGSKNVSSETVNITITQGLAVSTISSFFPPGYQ

Row | Binder | Kd [1] [nM] | binding result [2]
1 | MRAH-DA303v2/MRAL-k0 + MRAH-DB220v2/MRAL-k0 (antibody, human IgG1, kappa, Mixture of the two antibody-half molecules, which form a non-covalent heterodimer when captured on antigen; also called A1 + B1) heavy 1: QVQLQESGPGLVRPSQTLSLTCTVSGYSITSDHAWSWVRQPPGRGLEWIGYISYSGITTYNPSLKSRVTMLRDTSKNQFSLRLSSVTAADTAVYYCARSLARTTAMDYWGQGSLVTVSSASTKGPSVFPLAPSSKSTSGGTAALGCLVKDYFPEPVTVSWNSGALTSGVHTFPAVLQSSGLYSLSSVVTVPSSSLGTQTYICNVNHKPSNTKVDKKVEPKSCDKTHTSPPSPAPEYQWGPMVFLFPPKPKDTLMISRTPEVTCVVVDVSDEEPEVKFNWYVDGVEVHNAKTKPREEQYNATYRVVSVLTVLHQDWLNGKEYKCKVSNKALPAPIEKTISKAKGQPREPQVYTLPPSRKELTKNQVSLTCLVKGFYPSDIAVEWESNGQPENNYKTTPPYLDSDGSFFLYSDLTVDKSRWQQGNVFSCSVMHEALHNHYTQKSLSLSP heavy 2: QVQLQESGPGLVRPSQTLSLTCTVSGYSITSDHAWSWVRQPPGRGLEWIGYISYSGITTYNPSLKSRVTMLRDTSKNQFSLRLSSVTAADTAVYYCARSLARTTAMDYWGQGSLVTVSSASTKGPSVFPLAPSSKSTSGGTAALGCLVKDYFPEPVTVSWNSGALTSGVHTFPAVLQSSGLYSLSSVVTVPSSSLGTQTYICNVNHKPSNTKVDKKVEPKSCDKTHTSPPSPAPELLGGPSVFLFPPKPKDTLMISRTPEVTCVVVDVSHEEPEVKFNWYVDGVEVHNAKTKPREEQYNSTYRVVSVLTVLHQDWLNGKEYKCKVSNDALPMPIEETISKAKGQPREPQVYTLPPSRDELTKNQVSLTCLVKGFYPSDIAVEWESNGQPENNYKTTPPYLDSDGSFFLYSDLTVDKSRWQQGNVFSCSVMHEALHNHYTQESLSLSP light: not shown | 6.1 | –
2 | MRAH-DA405v2/MRAL-k0 (antibody, human IgG1, kappa, Antibody-half molecule (one H chain, one L chain); also called A3; antibody-half molecule A3) heavy: QVQLQESGPGLVRPSQTLSLTCTVSGYSITSDHAWSWVRQPPGRGLEWIGYISYSGITTYNPSLKSRVTMLRDTSKNQFSLRLSSVTAADTAVYYCARSLARTTAMDYWGQGSLVTVSSASTKGPSVFPLAPSSKSTSGGTAALGCLVKDYFPEPVTVSWNSGALTSGVHTFPAVLQSSGLYSLSSVVTVPSSSLGTQTYICNVNHKPSNTKVDKKVEPKSCDKTHTSPPSPAPEYQWGPMVFLFPPKPKDTLMISRTPEVTCVVVDVSDEEPEVKFNWYVDGVEVHNAKTKPREEQYNATYRVVSVLTVLHQDWLNGKEYKCKVSNKALPAPIEKTISKAKGQPREPQVYTLPPSRKELTKNQVSLTCLVKGFYPSDIAVEWESNGQPENNYKTTPPYLDSDGSFFLYSTLTVDKSRWQQGNVFSCSVMHEALHNHYTQKSLSLSP light: not shown | – | no binding
3 | MRAH-DA402v2/MRAL-k0 + MRAH-DB402v2/MRAL-k0 (antibody, human IgG1, kappa, Mixture of the two antibody-half molecules, which form a non-covalent heterodimer when captured on antigen; also called A2 + B2) heavy 1: QVQLQESGPGLVRPSQTLSLTCTVSGYSITSDHAWSWVRQPPGRGLEWIGYISYSGITTYNPSLKSRVTMLRDTSKNQFSLRLSSVTAADTAVYYCARSLARTTAMDYWGQGSLVTVSSASTKGPSVFPLAPSSKSTSGGTAALGCLVKDYFPEPVTVSWNSGALTSGVHTFPAVLQSSGLYSLSSVVTVPSSSLGTQTYICNVNHKPSNTKVDKKVEPKSCDKTHTSPPSPAPEYQWGPMVFLFPPKPKDTLMISRTPEVTCVVVDVSDEEPEVKFNWYVDGVEVHNAKTKPREEQYNATYRVVSVLTVLHQDWLNGKEYKCKVSNKALPAPIEKTISKAKGQPREPQVYTLPPSRKELTKNQVSLTCLVKGFYPSDIAVEWESNGQPENNYKTTPPYLDSDGSFFLYSHLTVDKSRWQQGNVFSCSVMHEALHNHYTQKSLSLSP heavy 2: QVQLQESGPGLVRPSQTLSLTCTVSGYSITSDHAWSWVRQPPGRGLEWIGYISYSGITTYNPSLKSRVTMLRDTSKNQFSLRLSSVTAADTAVYYCARSLARTTAMDYWGQGSLVTVSSASTKGPSVFPLAPSSKSTSGGTAALGCLVKDYFPEPVTVSWNSGALTSGVHTFPAVLQSSGLYSLSSVVTVPSSSLGTQTYICNVNHKPSNTKVDKKVEPKSCDKTHTSPPSPAPELLGGPSVFLFPPKPKDTLMISRTPEVTCVVVDVSHEEPEVKFNWYVDGVEVHNAKTKPREEQYNSTYRVVSVLTVLHQDWLNGKEYKCKVSNDALPMPIEETISKAKGQPREPQVYTLPPSRDELTKNQVSLTCLVKGFYPSDIAVEWESNGQPENNYKTTPPYLDSDGSFFLYSHLTVDKSRWQQGNVFSCSVMHEALHNHYTQESLSLSP light: not shown | 0.95 | –
4 | MRAH-DA405v2/MRAL-k0 + MRAH-DB405v2/MRAL-k0 (antibody, human IgG1, kappa, Mixture of the two antibody-half molecules, which form a non-covalent heterodimer when captured on antigen; also called A3 + B3) heavy 1: QVQLQESGPGLVRPSQTLSLTCTVSGYSITSDHAWSWVRQPPGRGLEWIGYISYSGITTYNPSLKSRVTMLRDTSKNQFSLRLSSVTAADTAVYYCARSLARTTAMDYWGQGSLVTVSSASTKGPSVFPLAPSSKSTSGGTAALGCLVKDYFPEPVTVSWNSGALTSGVHTFPAVLQSSGLYSLSSVVTVPSSSLGTQTYICNVNHKPSNTKVDKKVEPKSCDKTHTSPPSPAPEYQWGPMVFLFPPKPKDTLMISRTPEVTCVVVDVSDEEPEVKFNWYVDGVEVHNAKTKPREEQYNATYRVVSVLTVLHQDWLNGKEYKCKVSNKALPAPIEKTISKAKGQPREPQVYTLPPSRKELTKNQVSLTCLVKGFYPSDIAVEWESNGQPENNYKTTPPYLDSDGSFFLYSTLTVDKSRWQQGNVFSCSVMHEALHNHYTQKSLSLSP heavy 2: QVQLQESGPGLVRPSQTLSLTCTVSGYSITSDHAWSWVRQPPGRGLEWIGYISYSGITTYNPSLKSRVTMLRDTSKNQFSLRLSSVTAADTAVYYCARSLARTTAMDYWGQGSLVTVSSASTKGPSVFPLAPSSKSTSGGTAALGCLVKDYFPEPVTVSWNSGALTSGVHTFPAVLQSSGLYSLSSVVTVPSSSLGTQTYICNVNHKPSNTKVDKKVEPKSCDKTHTSPPSPAPELLGGPSVFLFPPKPKDTLMISRTPEVTCVVVDVSHEEPEVKFNWYVDGVEVHNAKTKPREEQYNSTYRVVSVLTVLHQDWLNGKEYKCKVSNDALPMPIEETISKAKGQPREPQVYTLPPSRDELTKNQVSLTCLVKGFYPSDIAVEWESNGQPENNYKTTPPYLDSDGSFFLYSTLTVDKSRWQQGNVFSCSVMHEALHNHYTQESLSLSP light: not shown | 1.2 | –

Continued, values first:

Row | Kd [1] [nM] | binding result [2] | Binder
5 | – | no binding | MRAH-DB405v2/MRAL-k0 (antibody, human IgG1, kappa, Antibody-half molecule (one H chain, one L chain); also called B3; antibody-half molecule B3) heavy: QVQLQESGPGLVRPSQTLSLTCTVSGYSITSDHAWSWVRQPPGRGLEWIGYISYSGITTYNPSLKSRVTMLRDTSKNQFSLRLSSVTAADTAVYYCARSLARTTAMDYWGQGSLVTVSSASTKGPSVFPLAPSSKSTSGGTAALGCLVKDYFPEPVTVSWNSGALTSGVHTFPAVLQSSGLYSLSSVVTVPSSSLGTQTYICNVNHKPSNTKVDKKVEPKSCDKTHTSPPSPAPELLGGPSVFLFPPKPKDTLMISRTPEVTCVVVDVSHEEPEVKFNWYVDGVEVHNAKTKPREEQYNSTYRVVSVLTVLHQDWLNGKEYKCKVSNDALPMPIEETISKAKGQPREPQVYTLPPSRDELTKNQVSLTCLVKGFYPSDIAVEWESNGQPENNYKTTPPYLDSDGSFFLYSTLTVDKSRWQQGNVFSCSVMHEALHNHYTQESLSLSP light: not shown
6 | – | no binding | MRAH-DB430v2/MRAL-k0 (antibody, human IgG1, kappa, Antibody-half molecule (one H chain, one L chain); also called B5; antibody-half molecule B5) heavy: QVQLQESGPGLVRPSQTLSLTCTVSGYSITSDHAWSWVRQPPGRGLEWIGYISYSGITTYNPSLKSRVTMLRDTSKNQFSLRLSSVTAADTAVYYCARSLARTTAMDYWGQGSLVTVSSASTKGPSVFPLAPSSKSTSGGTAALGCLVKDYFPEPVTVSWNSGALTSGVHTFPAVLQSSGLYSLSSVVTVPSSSLGTQTYICNVNHKPSNTKVDKKVEPKSCDKTHTSPPSPAPELLGGPSVFLFPPKPKDTLMISRTPEVTCVVVDVSHEEPEVKFNWYVDGVEVHNAKTKPREEQYNSTYRVVSVLTVLHQDWLNGKEYKCKVSNDALPMPIEETISKAKGQPREPQVYTLPPSRDLLTKNQVSLTCLVKGFYPSDIAVEWESNGQPENNYKTTPPYLDSDGSFFLYSDLTVDKSRWQQGNVFSCSVMHEALHNHYTQESLSLSP light: not shown
7 | – | no binding | MRAH-DB402v2/MRAL-k0 (antibody, human IgG1, kappa, Antibody-half molecule (one H chain, one L chain); also called B2; antibody-half molecule B2) heavy: QVQLQESGPGLVRPSQTLSLTCTVSGYSITSDHAWSWVRQPPGRGLEWIGYISYSGITTYNPSLKSRVTMLRDTSKNQFSLRLSSVTAADTAVYYCARSLARTTAMDYWGQGSLVTVSSASTKGPSVFPLAPSSKSTSGGTAALGCLVKDYFPEPVTVSWNSGALTSGVHTFPAVLQSSGLYSLSSVVTVPSSSLGTQTYICNVNHKPSNTKVDKKVEPKSCDKTHTSPPSPAPELLGGPSVFLFPPKPKDTLMISRTPEVTCVVVDVSHEEPEVKFNWYVDGVEVHNAKTKPREEQYNSTYRVVSVLTVLHQDWLNGKEYKCKVSNDALPMPIEETISKAKGQPREPQVYTLPPSRDELTKNQVSLTCLVKGFYPSDIAVEWESNGQPENNYKTTPPYLDSDGSFFLYSHLTVDKSRWQQGNVFSCSVMHEALHNHYTQESLSLSP light: not shown
8 | – | no binding | MRAH-DB424v2/MRAL-k0 (antibody, human IgG1, kappa, Antibody-half molecule (one H chain, one L chain); also called antibody-half molecule B4) heavy: QVQLQESGPGLVRPSQTLSLTCTVSGYSITSDHAWSWVRQPPGRGLEWIGYISYSGITTYNPSLKSRVTMLRDTSKNQFSLRLSSVTAADTAVYYCARSLARTTAMDYWGQGSLVTVSSASTKGPSVFPLAPSSKSTSGGTAALGCLVKDYFPEPVTVSWNSGALTSGVHTFPAVLQSSGLYSLSSVVTVPSSSLGTQTYICNVNHKPSNTKVDKKVEPKSCDKTHTSPPSPAPELLGGPSVFLFPPKPKDTLMISRTPEVTCVVVDVSHEEPEVKFNWYVDGVEVHNAKTKPREEQYNSTYRVVSVLTVLHQDWLNGKEYKCKVSNDALPMPIEETISKAKGQPREPQVYTLPPSRDNLTKNQVSLTCLVKGFYPSDIAVEWESNGQPENNYKTTPPYLDSDGSFFLYSDLTVDKSRWQQGNVFSCSVMHEALHNHYTQESLSLSP light: not shown
